{"source": "patent CN117836322A", "about": "(PASTEUR INSTITUT, dated 2024)", "binders": {"B1": {"name": "Cv2.1353 IgG1 (antibody, V domains shown)", "VH": "EVQLVESGGGLVQPGGSLRLSCAASGVTVSSNYMNWVRQAPGKGLEWVSVIYSGGSTFYADSVKGRFIISRDNSKNTLYLQMNSLKTEDTAVYYCARDLGPMGFDIWGQGTMVTVSS", "VL": "DIQMTQSPSFLSASVGDRVTITCRASQGISSYLAWYQQKPGKAPKLLIYAASTLQSGVPSRFSGSGSGTEFTLTISSLQPEDFATYYCQQLNSDPPVTFGPGTKVDIKR"}, "B2": {"name": "Cv2.3194 IgG1 (antibody, V domains shown)", "VH": "EVQLVESGGGLIQPGGSLRLSCAASGITVTSNYMSWVRQAPGKGLEWVSVIYPGGSTFYADSVKGRFTISRDNSKNTLYLQMNSLRAEDTAVYYCARDLVVYGMDVWGQGTTVTVSS", "VL": "EIVLTQSPGTLSLSPGERATLSCRASQSVSSSYLAWYQQKPGQAPRLLIYGASSRATGIPGRFSGSGSGTDFTLTISRLEPEDFAIYYCQQGVTFGGGTKVEIKR"}, "B3": {"name": "Cv2.3235 IgG1 (antibody, V domains shown)", "VH": "EVQLVESGGGLIQPGGSLRLSCAASGFTVSRNYMSWVRQAPGKGLEWVSVIYSGGSTFYADSVKGRFTISRDNSKNTLYLQMNSLRAEDTAVYYCARDGDYYGMDVWGQGTTVTVSS", "VL": "DIQMTQSPSFLSASVGDRVTITCRASQGISSFLAWYQQKPGKAPKLLIYGASTLQSGVTSRFSGSGSGTEFTLTISSLQPEDFATYYCQRLDSYPPITFGQGTRLEIKR"}, "B4": {"name": "Cv2.5213 IgG1 (antibody, V domains shown)", "VH": "EVQLVESGGGLIQPGGSLRLSCAASGFTVSSNYMSWVRQAPGKGLEWVSLIYSGGSTYYADSVKGRFTISRDNSKNTLYLQMNSLRAEDTAVYYCARDLNYYGMDVWGQGATVTVSS", "VL": "DIQMTQSPSSLSASVGDRVTITCRASQGISSYLAWYQQKPGKAPKLLIYAASTLQSGVPSRFSGSGSGTDFTLTISSLQPEDFATYYCQQLDSYSPFTFGPGTKVDIKR"}, "B5": {"name": "Cv2.1169 IgG1 (antibody, V domains shown)", "VH": "QVQLVQSGPEVKKPGTSVKVSCKASGFTFTTSAVQWVRQARGQRLEWIGWIVVGSGNTNYAQKFQERVTITRDMSTTTAYMELSSLRSEDTAVYYCAAPYCSGGTCLDGFDIWGQGTMVTVSS", "VL": "not shown"}}, "data": [{"molecular_target": "T1, SARS-CoV-2 S1结构域 (SARS-CoV-2, UniProt P0DTC2 16-681)", "T1 construct": "also called S1亚基", "assay": "SPR (Biacore), antibody coupled to CM5 chip, viral protein as analyte, 25°C", "units": {"Kd": "µM"}, "values": [{"binder": "B1", "Kd": "< 1"}, {"binder": "B2", "Kd": "< 1"}, {"binder": "B3", "Kd": "< 1"}, {"binder": "B4", "Kd": "< 1"}, {"binder": "B5", "Kd": "< 1"}]}]}
